Results published in publication PMC8669144, “Imaging of Glioblastoma Tumor-Associated Myeloid Cells Using Nanobodies Targeting Signal Regulatory Protein Alpha” (Frontiers in Immunology, 2021).
Numbering of substitutions follows the chain as printed.

T1: recombinant ligand binding domain of mouse SIRPα (mSIRPα) (mouse)
T1 chain: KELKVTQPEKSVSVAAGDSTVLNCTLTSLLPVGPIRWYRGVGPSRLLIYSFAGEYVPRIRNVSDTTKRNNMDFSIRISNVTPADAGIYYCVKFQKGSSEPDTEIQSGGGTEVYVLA

B1: Nb 47 (VHH)
VHH: QVQLQESGGGSVQAGGSLRLSCAASGFTYSLYCMGWFRQAPGKEREKVAEMDKSSGDTDYADSVKGRFTISQDNAKNTVYLMMNSLKPEDTAIYYCAATGYRCQGYNAWGQGTQVTVSS
B2: Nb 26 (VHH)
VHH: QVQLQESGGGSVQAGGSLRLSCATSGLTYTAYCMGWFRQAPGKGRETVAQINLGDGDTYYADSVKGRFAISQDNAKNTVYLLMNSLQPEDTAIYYCATTDGRCQKWQYWGQGTQVTVSS
B3: Nb 92 (VHH)
VHH: QVQLQESGGGSVQAGGSLRLSCAASGYISSTSYVGWFRQAPGKEREKVAEARSGGDYTWYADSVKGRFTISQDNAKNTVYLQMNSLKPEDTAIYYCAAGEFGGPYNNWGQGTQVTVSS
B4: Nb 33 (VHH)
VHH: QVQLQESGGGLVQPGGSLRLSCAASGFTFSSYFMSWVRQAPGKGLEWVSGINSDGSMTYYLDSVKGRFTMSRDNAKNTLYLEMNSLKSEDTALYYCALRGVFSDYALHSQGTQVTVSS
B5: Nb 75 (VHH)
VHH: B4 VHH with G16D, G26E, T28A, S53T, L61S, M70I, E82Q, A97V, H108Q
B6: Nb 25 (VHH)
VHH: QVQLQESGGGSVQAGGSLRLSCAASGHSFTLDCMGWFRQAPGKERESVAEINMYSGNTYYADSVKGRFTISRDSAKSTVNLQMNSLKPEDTAIYFCAAAPTCARWDYRGQGTQVTVSS
B7: Nb 35 (VHH)
VHH: QVQLQESGGGSVQAGGSLRLSCAASGYSYSSTCMAWFRQVPGKEREGVASINNSGTATYYADSVKGRFTISRDNAKNTLYLLMDNLKPEDTAIYYCAASLRRGQDCLGAIDYWGQGTQVTVSS
B8: Nb 1 (VHH)
VHH: QVQLQESGGGSVQAGGSLRLSCSASGHMYGSVIGWFRQAPGKEREGVAAIYTYDGSEYYADSVKGRFTVSQDTQDNAKNTVYLQMSSLNVEDTAMYYCAVGFPLGRLTTVRVLASNEYKYGTQVTVSS
B9: Nb 53 (VHH)
VHH: QVQLQESGGGSVQAGGSLRLSCAASGYTYSDYCMGWFRQAPGKEREVVAEINIVDGDTYYADSVKGRFTISQDNAKNTVYLRMNSLKPDDTAIYVCAATGRRCQGYNSWGQGTQVTVSS
B10: Nb 42 (VHH)
VHH: QVQLQESGGGSVQAGGSLRLSCAASGFTYSNYCMAWFRQAPGKERESVAQINNNDGDTYYAASVKGRFTISQDNAKNPVYLQMDSLKPEDTAMYYCAASDSRCLEYKYWGQGTQVTVSS
B11: Nb 12 (VHH)
VHH: QVQLQESGGGSVQAGGSVKLSCATSGLTYSAYCMGWFRQAPGKGRETVAQINLGDGDTYYADSVKGRFTISLDNARNTVYLQMNSLKPEDTAIYYCAATYSSRCASFGYWGQGTQVTVSS
B12: Nb 52 (VHH)
VHH: QVQLQESGGGSVQAGGSLRLSCAASGFTYSNYCMAWLRQAPGKERESVAQININDGDTYYAASVKGRFTISQDNAKNTVYLMMNSLKPEDTAIYYCAATGYGCQGYNAWGQGTQVTVSS
B13: Nb 3 (VHH)
VHH: QVQLQESGGGSVQAGGSLRLSCAAFGFTYSNYCVTWFRQAPGKERERVASIDRSNGDTLYTESVKGRFTISQDNAKNTVSLVMNSLKPEDTAIYYCAATDRYCADWRTWGQGTQVTVSS
B14: bivalent anti-SIRPα Nb15 (pHEN25 construct, dimerised through a cysteine) (VHH)
VHH: EVQLQESGGGSVQAGGSLRLSCATSGLTYSAYCMGWFRQAPGKGRETVAQINLGDGDTYYADSVKGRFAISQDNAKNTVHLLMNGLKPEDTAIYYCAGSDHMCAKWHYWGQGTQVTVSS
modifications: 99mTc tricarbonyl at the His6-tag (in the radioligand binding assay only)
B15: monovalent anti-mSIRPα nanobody Nb15, His6-tagged (VHH)
VHH: B14 VHH with E1Q
modifications: 99mTc tricarbonyl at the His6-tag (in the radioligand binding assay only)
B16: anti-mSIRPα nanobody Nb54 as used in SPR and epitope binning (VHH)
VHH: QVQLQESGGGSVQAGGSLRLSCSASGHMYGSVIGWFRQAPGKERVGVAAIYTYAGSEYYADSVKGRFTVSQDTQDNAKNTVYLQMSSLNVEDTAMYYCAVGFPLGRLTTVRTLASNEYKYWGQGTQVTVSS
notes: source: E. coli WK6, periplasmic extraction, purified (IMAC, SEC)
B17: anti-mSIRPα nanobody Nb89 as used in SPR and epitope binning (VHH)
VHH: QVQLQESGGGLVQPGGSLRLSCAASGFAFSRNSMRWVRQAPGKGLEWVSSISSDGKYTYYTDSVKGRFAISRDNANNTLYLQMNSLKSEDTALYYCSTGGAPASQGTQVTVSS
notes: as for B16
B18: monovalent anti-mSIRPα nanobody Nb15, His6-tagged (VHH)
VHH: B14 VHH with E1Q
notes: both carry a C-terminal His6; also called monovalent Nb15; anti-SIRPα Nb15; source: E. coli WK6, periplasmic extraction, purified (IMAC, SEC); not shown: His6, C-terminal, kept
B19: bivalent anti-SIRPα Nb15 (pHEN25 construct, dimerised through a cysteine) (VHH)
VHH: B14 VHH
notes: as the VHH of m7 (Nb15); fourteen amino acid long linker and a cysteine after the His6 tag (pHEN25); The cysteine allows dimerization; The order of His6 tag, linker and cysteine is worded loosely; also called bivalent Nb15; bivalent construct of Nb15; source: E. coli WK6 (pHEN25), periplasmic extraction, purified (IMAC, SEC); not shown: His6, C-terminal, kept
B20: anti-mSIRPα nanobody Nb15, HA- and His6-tagged (pMECS) (VHH)
VHH: B14 VHH with E1Q
notes: An alpaca and two dromedaries were immunised; also called clone 15; source: E. coli WK6, periplasmic extraction, purified (IMAC, SEC)
B21: anti-mSIRPα nanobody Nb54, HA- and His6-tagged (pMECS) (VHH)
VHH: B16 VHH
notes: also called clone 54; source: E. coli WK6, periplasmic extraction, purified (IMAC, SEC)
B22: anti-mSIRPα nanobody Nb89, HA- and His6-tagged (pMECS) (VHH)
VHH: B17 VHH
notes: also called clone 89; source: E. coli WK6, periplasmic extraction, purified (IMAC, SEC)

Biological target: T2, recombinant ligand binding domain of mouse SIRPα (mSIRPα) (Mus musculus, strain  …, UniProt P97797)
Assay: not given
Conditions: not given

T2 sequence (P97797 whole entry, looked up, the tested form may be a part): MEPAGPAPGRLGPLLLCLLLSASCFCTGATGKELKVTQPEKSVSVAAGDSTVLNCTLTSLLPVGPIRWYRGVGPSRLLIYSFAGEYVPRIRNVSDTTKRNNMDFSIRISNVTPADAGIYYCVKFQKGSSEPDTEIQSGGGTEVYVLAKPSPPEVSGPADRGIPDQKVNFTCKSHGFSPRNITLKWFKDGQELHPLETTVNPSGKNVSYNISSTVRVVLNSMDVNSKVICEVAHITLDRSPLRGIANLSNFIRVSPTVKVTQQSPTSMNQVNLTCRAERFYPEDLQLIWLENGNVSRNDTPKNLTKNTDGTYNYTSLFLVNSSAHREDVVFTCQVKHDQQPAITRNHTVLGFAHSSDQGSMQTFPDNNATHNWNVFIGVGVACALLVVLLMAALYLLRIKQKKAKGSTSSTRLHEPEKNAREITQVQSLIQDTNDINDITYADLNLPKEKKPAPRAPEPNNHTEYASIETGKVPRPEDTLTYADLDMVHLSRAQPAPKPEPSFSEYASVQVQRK

Does B1 bind?
Result: binds

Does B2 bind?
Result: binds

Does B3 bind?
Result: binds

Does B4 bind?
Result: binds

Does B5 bind?
Result: binds

Does B6 bind?
Result: binds

Does B7 bind?
Result: binds

Does B8 bind?
Result: binds

Does B9 bind?
Result: binds

Does B10 bind?
Result: binds

Does B11 bind?
Result: binds

Does B12 bind?
Result: binds

Does B13 bind?
Result: binds

Biological target: T1, recombinant ligand binding domain of …
Assay: SPR
Conditions: not given

B14 was tested. Which koff did it give?
The koff was 0.00733 s⁻¹.

Biological target: T1, recombinant ligand binding domain of …
Assay: SPR
Conditions: not given
Remark: another data set of the same source

How did the koff turn out when B15 was run?
Its koff is 0.00809 s⁻¹.

Which koff does the source give for B16 here?
The koff was 0.221 s⁻¹.

With B17 as the binder, how does the koff read?
Its koff is 0.0087 s⁻¹.

Biological target: T1, recombinant ligand binding domain of …
Assay: SPR
Conditions: not given
Remark: another data set of the same source

Which Kd does the source give for B15 here?
The Kd was 109 nM.

Which Kd does the source give for B14 here?
Its Kd is 57.4 nM.

Biological target: T1, recombinant ligand binding domain of …
Assay: SPR
Conditions: not given
Remark: another data set of the same source

With B15 as the binder, how does the Kd read?
The Kd was 49.4 nM.

With B16 as the binder, how does the Kd read?
Its Kd is 354 nM.

Which Kd does the source give for B17 here?
Its Kd is 6.9 nM.

Biological target: T3, mouse SIRPα natively expressed on RAW 264.7 macrophages (Mus musculus, endogenous in RAW 264.7 …, UniProt P97797)
T3 construct: also called native murine SIRPα; cell-membrane mSIRPα; source: endogenous, on RAW 264.7 cells
Assay: radioligand binding; 99mTc-labeled nanobodies at 2, 20 and 200 nM on adherent RAW 264.7 cells, 1 h, 4°C; aspecific binding with 100x molar excess of unlabeled Nb
Conditions: one partner purified

Does B18 bind?
Result: binds

Does B19 bind?
Result: binds

Biological target: T3, mouse SIRPα natively expressed on RAW …
Assay: flow cytometry on cells; 1 µg purified nanobody with 2 x 10^5 RAW 264.7 cells, 4°C, 1 h; detected with AF488 anti-HA antibody; threshold triple ΔMFI of the non-targeting BabA Nb19
Conditions: one partner purified

Does B20 bind?
Result: binds

Does B21 bind?
Result: binds

Does B22 bind?
Result: binds

Biological target: T2, recombinant ligand binding domain of …
Assay: SPR; Biacore T200; recombinant antigen immobilised by amine coupling on a CM5 chip; nanobodies injected in 2-fold dilutions from 500 to 1.95 nM; 25°C; HBS (20 mM HEPES pH 7.4, 150 mM NaCl, 0.005% Tween-20, 3.4 mM EDTA); 1:1 binding model
Conditions: both partners purified

Does B18 bind?
Result: binds

Does B16 bind?
Result: binds

Does B17 bind?
Result: binds

Does B19 bind?
Result: binds
